In article PMC3386781:

Legend:
purified protein [1] = substrate: Br; test: purified protein; conditions: co-substrate SAM; tag removed
purified protein [2] = substrate: N#CS; test: purified protein; conditions: co-substrate SAM; tag removed

Row | Protein | Km (purified protein [1]) [mM] | Vmax (purified protein [1]) [µmol/min/mg] | Km (purified protein [2]) [mM] | Vmax (purified protein [2]) [µmol/min/mg]
1 | AtHTMT1 (AtHOL1; halide/thiocyanate methyltransferase, HTMT) (Arabidopsis thaliana) (protein) MAEEQQNSDQSNGGNVIPTPEEVATFLHKTVEEGGWEKCWEEEITPWDQGRATPLIVHLVDTSSLPLGRALVPGCGGGHDVVAMASPERFVVGLDISESALAKANETYGSSPKAEYFSFVKEDVFTWRPTELFDLIFDYVFFCAIEPEMRPAWAKSMYELLKPDGELITLMYPITDHVGGPPYKVDVSTFEEVLVPIGFKAVSVEENPHAIPTRKGKEKLGRWKKIN | 24.87 ± 2.785 | 0.0114 | 0.099 ± 0.020 | 0.0436
2 | AtHTMT1 (AtHOL1; halide/thiocyanate methyltransferase, HTMT) (Arabidopsis thaliana; V23C) (protein) MAEEQQNSDQSNGGNVIPTPEECATFLHKTVEEGGWEKCWEEEITPWDQGRATPLIVHLVDTSSLPLGRALVPGCGGGHDVVAMASPERFVVGLDISESALAKANETYGSSPKAEYFSFVKEDVFTWRPTELFDLIFDYVFFCAIEPEMRPAWAKSMYELLKPDGELITLMYPITDHVGGPPYKVDVSTFEEVLVPIGFKAVSVEENPHAIPTRKGKEKLGRWKKIN | 21.06 ± 1.883 | 0.0124 | 0.103 ± 0.009 | 0.0434
3 | AtHTMT1 (AtHOL1; halide/thiocyanate methyltransferase, HTMT) (Arabidopsis thaliana; Y172F) (protein) MAEEQQNSDQSNGGNVIPTPEEVATFLHKTVEEGGWEKCWEEEITPWDQGRATPLIVHLVDTSSLPLGRALVPGCGGGHDVVAMASPERFVVGLDISESALAKANETYGSSPKAEYFSFVKEDVFTWRPTELFDLIFDYVFFCAIEPEMRPAWAKSMYELLKPDGELITLMFPITDHVGGPPYKVDVSTFEEVLVPIGFKAVSVEENPHAIPTRKGKEKLGRWKKIN | 30.16 ± 2.942 | 0.0114 | 0.141 ± 0.009 | 0.046
